# From patent US20030088058A1, “ISOPENICILLIN N SYNTHETASE AND DEACETOXYCEPHALOSPORIN C SYNTHETASE ENZYMES AND METHODS” (priority 1996, published 2003)
# Numbering of substitutions follows the chain as printed. In names and notes the source's numbering stands.
# B1: Wild type: unmodified deacetoxycephalosporin C synthase (DAOCS, expandase) (protein, UniProt P18548 1-311, looked up)
# Deacetoxycephalosporin C …: MDTTVPTFSLAELQQGLHQDEFRRCLRDKGLFYLTDCGLTDTELKSAKDLVIDFFEHGSEAEKRAVTSPVPTMRRGFTGLESESTAQITNTGSYSDYSMCYSMGTADNLFPSGDFERIWTQYFDRQYTASRAVAREVLRATGTEPDGGVEAFLDCEPLLRFRYFPQVPEHRSAEEQPLRMAPHYDLSMVTLIQQTPCANGFVSLQAEVGGAFTDLPYRPDAVLVFCGAIATLVTGGQVKAPRHHVAAPRRDQIAGSSRTSSVFFLRPNADFTFSVPLARECGFDVSLDGETATFQDWIGGNYVNIRRTSKA
# B2: P168V: DAOCS mutant whose recombinant enzyme was insoluble (protein, UniProt P18548 1-311, looked up, variant P168V)
# Deacetoxycephalosporin C …: B1 Deacetoxycephalosporin C … with P168V
# How the values were obtained:
# DAOCS [1] = molecular target: DAOCS (Streptomyces clavuligerus, UniProt P18548); conditions: compared with conversion of penicillin N to DAOC; cited from earlier work
# DAOCS [2] = assay: Specific activity of DAOCS mutants by turnover of α-[14C]-ketoglutarate with penicillin substrates; assay type: biochemical
# Method: (§1) Almost all the mutants expressed well, except R88I, R88Q and R87Q/R287Q whereby the expression level was only about half of others. Generally the expression level of colonies was about 10˜20% of soluble protein at 27° C. Moreover, recombinant enzyme of P168V mutant was insoluble. These mutant enzymes were purified to ˜60-70% purity with Resouce-Q column (Phamacia). The activity of each mutant with respect to penicillin N and its side-chain analogues was analysed by bioassay. […] Screening of the substrate conversion of penicillins mutants was also performed using a assay with radiolabelled α-ketoglutarate. The reaction conditions were the same as for bioassay except that [^14C]-α-ketoglutarate was used.
# E. coli X580 cells = assay: Hole-plate bioassay containing penicillinase, on enzyme reaction products; assay type: cell-based; conditions: products of the reaction with penicillin G; hole-plate assay with penicillinase
# Method: as §1
# [3] = Expression of recombinant DAOCS mutants, solubility of the enzyme; conditions: expressed at 27° C.
# From the text: A U.S.E mutagenesis kit (Phamacia) was used for all the mutagenesis reactions and a Pst I restriction site on the pET vector was selected. Selection of single and double mutants were successfully performed from colonies by restriction enzyme digestion. (Sambrook et al, Molecular Cloning, A Laboratory Manual, Cold Spring Harbour, USA, 1989). […] Mutations of DAOCS (Table 1) were confirmed by sequencing according to the dideoxy method of Sanger. Mutants were designed after study of the IPNS-Mn^2+ and the IPNS-Fe(II)-ACV structures. Polar residues with which the side chain D-α-aminoadipoyl (carboxylate and amino groups) might bind to were identified.
# as §1
molecule,measurement,setting,value
B1,Efficiency of conversion of penicillin G to phenylacetylcephalosporin C,DAOCS [1],much less efficient
same,Specific activity,DAOCS [2]; substrate 6-Aminopenicillanic acid (6-APA),1.0 ± 0.2 nmol/min/mg
same,Specific activity,DAOCS [2]; substrate Adipyl-6-APA,2.7 nmol/min/mg
same,Specific activity,DAOCS [2]; substrate Ammoxicillin,1.4 ± 0.6 nmol/min/mg
same,Specific activity,DAOCS [2]; substrate Ampicillin,0 nmol/min/mg
same,Specific activity,DAOCS [2]; substrate Carbenicillin,0 nmol/min/mg
same,Specific activity,DAOCS [2]; substrate Cloxacillin,1.6 ± 0.6 nmol/min/mg
same,Specific activity,DAOCS [2]; substrate Methicillin,0 nmol/min/mg
same,Specific activity,DAOCS [2]; substrate Penicillin G,5.1 ± 0.4 nmol/min/mg
same,Specific activity,"DAOCS [2]; substrate Penicillin N, uncoupled decarboxylation subtracted",6.4 nmol/min/mg
same,Specific activity,DAOCS [2]; substrate Penicillin V,5.3 ± 0.3 nmol/min/mg
same,Oxacillin accepted as substrate (in words),DAOCS [2]; substrate oxacillin,neither oxacillin nor piperacillin are substrates
same,Specific activity,DAOCS [2]; substrate oxacillin,0 nmol/min/mg
same,Piperacillin accepted as substrate (in words),DAOCS [2]; substrate piperacillin,neither oxacillin nor piperacillin are substrates
same,Specific activity,DAOCS [2]; substrate piperacillin,0 nmol/min/mg
same,Inhibition of growth of E. coli X580 cells,E. coli X580 cells,showed the same inhibition
B2,Solubility of recombinant enzyme,[3],insoluble
